Reference: article PMC7810697, “Sarcolipin alters SERCA1a interdomain communication by impairing binding of both calcium and ATP” (Scientific Reports, 2021)
Ends that are not written are not given here. * marks the point of attachment. Palmitoyl = CCCCCCCCCCCCCCCC(=O)*

What was measured:
[1] = target: T1, DDM-solubilized SR (native SERCA1a) (Oryctolagus cuniculus, UniProt P04191); assay: Effect of SLN:SERCA1a stoichiometry on phosphorylated intermediate, DDM-solubilized SR; type: biochemical, rabbit; settings: for EPmax (stoichiometry series), DDM-solubilized SR / decrease of the EP level, DDM-solubilized native SERCA1a (discussion): Fig. 4G; for amplitude of the inhibition of phosphoenzyme level, DDM-solubilized SR: SR without added SLN = 100%; for amplitude of the inhibition of phosphoenzyme level, DDM-solubilized SR / SLN:SERCA1a ratio for half-inhibition, DDM-solubilized SR (Fig. 4H): mean of three independent experiments; for SLN:SERCA1a ratio for half-inhibition, DDM-solubilized SR (Fig. 4H): phosphoenzyme after 20 s, p = 0.047 pSLN vs SLN
T1 construct: DDM-solubilized native SERCA1a purification; from tissue; host or cells: rabbit skeletal muscle sarcoplasmic reticulum
Experimental: Transient formation of the phosphoenzyme intermediate was measured after incubation with [γ^32P]ATP followed by acid quenching, and filtration. For most experiments, 50 µL of enzyme at 10 µg/mL in a buffer containing 50 mM Tes-Tris pH7.5, 1 mM KCl, 5 mM MgCl2, 20% glycerol (w/w) and 0.5 mg/mL DDM, supplemented or not with SLN, was stored on ice. Concentrations of EGTA and calcium are specified in figure legends in order to reach the appropriate [Ca^2+]free and therefore the desired starting state for the ATPase. For kinetics of phosphorylation, we initiate reaction by addition of 2 µM [γ^32P]ATP (5 mCi/µmole), and calcium at 100 µM when specified. Reaction was quenched by addition of 2 mL of cold quenching medium (500 mM TCA + 30 mM H3P0_4) under vigorous mixing, and immediately stored on ice for 20–30 min to improve precipitation, a period of time critical for retention of the precipitate on the filter in presence of detergent. This was followed by filtration on GS filters (Millipore, Saint Quentin-Fallavier, France) and careful rinsing of the filters with diluted quenching medium (50 mM TCA + 3 mM H3P0_4). The amount of radioactivity bound to the filter was estimated by liquid scintillation counting (Perkin Elmer TriCarb Counter). When starting from a calcium-deprived state (Fig. 4C,D), EGTA was added only one minute before starting phosphorylation to limit irreversible inactivation of the solubilized ATPase, although the presence of glycerol helps in protecting the enzyme from irreversible inactivation. For dephosphorylation kinetics, 1 mM “cold” Mg.ATP was added after a 30 s period of phosphorylation. For Ca^2+-dependency, we adjust the concentration of free calcium according to the Ca.EGTA constant as mentioned above, before triggering phosphorylation. […] Phosphorylations were done at 0 °C especially for inhibition by vanadate to prevent dissociation of vanadate and limit irreversible inactivation in absence of calcium. […]
resuspended in a large volume of pure water and lyophilized to evaporate most of the TFA. The rinsed powder was then suspended in presence of 10 mM HCl to exchange the anionic residual TFA that may interact with the positive charges of the peptide for chloride. This suspension was lyophilized again.
Three additional cycles of – dissolving in pure water / lyophilisation – will allow to eliminate traces of TFA and to get back to a pH compatible with functional tests. For final solubilisation of SLN in detergent, powder was then dissolved in 50% TFE and an amount of detergent to reach a 100:1 mole:mole detergent:SLN ratio. Here, we used C12E8 as it is fully compatible with functional characterization of SERCA1a 23. This suspension was then lyophilized again to evaporate TFE.
Sarcolipins (Palm-SLN or SLN) were finally resuspended at 0.8 mg/mL (about 200 µM) in a 10 mM potassium phosphate buffer pH 7.4, in the presence of 2.5 mg/mL C12E8. […]
DDM-solubilized native SERCA1a purification
SR vesicles were suspended at a concentration of 1 mg/mL in a buffer containing 50 mM MOPS-Tris pH7, 100 mM KCl, 5 mM MgCl2, 0.1 mM CaCl2, 20 % glycerol (v/v) and 10 mg/mL DDM (detergent:protein ratio 10:1 w/w), and incubated for 10 minutes at 20°C. Solubilized material was recovered after centrifugation for 10 minutes at 120,000 x g on a TLA100.3 rotor (Beckman Coulter TL100 ultracentrifuge). Supernatant was injected on a size exclusion chromatography column (Superdex 200 10/300 GL on an Akta Purifier FPLC system, GE Healthcare) equilibrated with the same buffer but now containing only 0.5 mg/mL DDM. Chromatography was performed at 4°C and at a flow rate of 0.5 mL/min. Fractions corresponding to the main peak were collected, pooled and stored at - 80°C. For further details, see 32.
Steady-state ATPase activity measurements
Measurements were performed using classical enzyme coupled assay. We measured the rate of NADH oxidation in the presence of 0.1 mg/mL lactate deshydrogenase, 0.05 mg/mL pyruvate kinase, 1 mM […]

[2] = target: T2, recombinant SERCA1a (recS1a) (Oryctolagus cuniculus, UniProt P04191); assay: Kinetics of phosphorylation from [γ32P]ATP, recS1a; type: biochemical, rabbit (expressed in S. cerevisiae); settings: for EPmax, from calcium deprived state: Fig. 4C, mean of six (pSLN), four (SLN) replicates, recS1a alone 3.09 ± 0.10; for t1/2 of phosphorylation, from calcium deprived state: EGTA 1 min then 2 µM [γ32P]ATP and calcium, six (pSLN) or four (SLN) replicates from two independent experiments, recS1a alone 6.8, p < 0.0001; for rate of phosphorylation, from calcium deprived state: recS1a, starting from calcium-deprived state, Fig. 4C,D
T2 construct: BAD (biotin acceptor domain) (C, cleaved yes); made in house; host or cells: Saccharomyces cerevisiae
Experimental: (§1) Transient formation of the phosphoenzyme intermediate was measured after incubation with [γ^32P]ATP followed by acid quenching, and filtration. For most experiments, 50 µL of enzyme at 10 µg/mL in a buffer containing 50 mM Tes-Tris pH7.5, 1 mM KCl, 5 mM MgCl2, 20% glycerol (w/w) and 0.5 mg/mL DDM, supplemented or not with SLN, was stored on ice. Concentrations of EGTA and calcium are specified in figure legends in order to reach the appropriate [Ca^2+]free and therefore the desired starting state for the ATPase. For kinetics of phosphorylation, we initiate reaction by addition of 2 µM [γ^32P]ATP (5 mCi/µmole), and calcium at 100 µM when specified. Reaction was quenched by addition of 2 mL of cold quenching medium (500 mM TCA + 30 mM H3P0_4) under vigorous mixing, and immediately stored on ice for 20–30 min to improve precipitation, a period of time critical for retention of the precipitate on the filter in presence of detergent. This was followed by filtration on GS filters (Millipore, Saint Quentin-Fallavier, France) and careful rinsing of the filters with diluted quenching medium (50 mM TCA + 3 mM H3P0_4). The amount of radioactivity bound to the filter was estimated by liquid scintillation counting (Perkin Elmer TriCarb Counter). When starting from a calcium-deprived state (Fig. 4C,D), EGTA was added only one minute before starting phosphorylation to limit irreversible inactivation of the solubilized ATPase, although the presence of glycerol helps in protecting the enzyme from irreversible inactivation. For dephosphorylation kinetics, 1 mM “cold” Mg.ATP was added after a 30 s period of phosphorylation. For Ca^2+-dependency, we adjust the concentration of free calcium according to the Ca.EGTA constant as mentioned above, before triggering phosphorylation. […] Phosphorylations were done at 0 °C especially for inhibition by vanadate to prevent dissociation of vanadate and limit irreversible inactivation in absence of calcium.

[3] = target: T2, recombinant SERCA1a (recS1a); assay: Effect of SLN:SERCA1a stoichiometry on phosphorylated intermediate, recS1a; type: biochemical, rabbit (expressed in S. cerevisiae); settings: for EPmax (stoichiometry series), recS1a / maximum decrease of the EP level, recS1a (discussion): Fig. 4G; for SLN:SERCA1a ratio for half-inhibition, recS1a (Fig. 4H): phosphoenzyme after 20 s, dose-response with variable slope; for SLN:SERCA1a ratio for half-inhibition, recS1a (Fig. 4H) / amplitude of the inhibition of phosphoenzyme level, recS1a: mean of three independent experiments; for amplitude of the inhibition of phosphoenzyme level, recS1a: recS1a without SLN = 100%
Experimental: as §1

T1 sequence (P04191 1-994 isoform P04191-2): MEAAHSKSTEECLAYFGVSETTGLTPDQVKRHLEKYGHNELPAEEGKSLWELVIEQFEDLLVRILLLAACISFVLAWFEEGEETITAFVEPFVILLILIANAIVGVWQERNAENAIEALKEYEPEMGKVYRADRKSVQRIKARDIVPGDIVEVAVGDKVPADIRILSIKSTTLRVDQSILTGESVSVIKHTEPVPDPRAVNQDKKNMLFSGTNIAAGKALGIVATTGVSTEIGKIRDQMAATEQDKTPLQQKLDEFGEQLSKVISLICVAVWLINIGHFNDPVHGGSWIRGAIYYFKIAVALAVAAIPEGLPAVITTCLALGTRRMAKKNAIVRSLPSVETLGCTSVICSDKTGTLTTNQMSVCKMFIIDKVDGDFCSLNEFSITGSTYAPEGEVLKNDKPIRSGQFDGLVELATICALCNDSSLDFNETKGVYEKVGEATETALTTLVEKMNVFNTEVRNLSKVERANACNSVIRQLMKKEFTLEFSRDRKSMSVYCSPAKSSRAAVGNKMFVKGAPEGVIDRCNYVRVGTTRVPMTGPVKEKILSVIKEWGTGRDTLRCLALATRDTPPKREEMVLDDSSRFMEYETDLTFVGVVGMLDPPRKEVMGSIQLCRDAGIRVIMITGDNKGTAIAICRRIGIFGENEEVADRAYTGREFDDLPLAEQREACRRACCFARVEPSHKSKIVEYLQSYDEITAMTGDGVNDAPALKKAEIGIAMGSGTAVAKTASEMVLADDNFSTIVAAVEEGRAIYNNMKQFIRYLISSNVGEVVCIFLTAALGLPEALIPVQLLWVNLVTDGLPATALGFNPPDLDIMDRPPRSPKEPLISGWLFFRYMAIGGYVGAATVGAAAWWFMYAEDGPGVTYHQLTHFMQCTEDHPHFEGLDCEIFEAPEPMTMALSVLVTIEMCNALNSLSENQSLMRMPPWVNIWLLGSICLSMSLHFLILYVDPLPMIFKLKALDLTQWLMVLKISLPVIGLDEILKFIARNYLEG
T2 sequence (P04191 1-994 isoform P04191-2): as above

With “SLN: chemically synthesized non-palmitoylated rabbit sarcolipin; in cited literature results sarcolipin in general (MERSTRELCLNFTVVLITVILIWLLVRSYQY; UniProt P42532 1-31, looked up)” the “EPmax (stoichiometry series), DDM-solubilized SR” value [1] was 3.94 ± 0.12 nmoles EP/mg ATPase, the “decrease of the EP level, DDM-solubilized native SERCA1a (discussion)” value [1] was “about 20%” and the “amplitude of the inhibition of phosphoenzyme level, DDM-solubilized SR” value [1] was 19.0 ± 0.7%. The “SLN:SERCA1a ratio for half-inhibition, DDM-solubilized SR (Fig. 4H)” value [1] was 3.1 ± 0.3 mol SLN added per mole of SERCA1a, the “EPmax, from calcium deprived state” value ([2]; SLN:SERCA1a 10:1) was 3.15 ± 0.05 nmoles EP/mg ATPase and the t1/2 of phosphorylation, from calcium deprived state ([2]; SLN:SERCA1a 10:1 mol:mol) was 13.7 s. The “rate of phosphorylation, from calcium deprived state” value [2] was “significantly lower”, the “EPmax (stoichiometry series), recS1a” value [3] was 2.38 ± 0.05 nmoles EP/mg ATPase and the “maximum decrease of the EP level, recS1a (discussion)” value [3] was “about 30%”. The “SLN:SERCA1a ratio for half-inhibition, recS1a (Fig. 4H)” value [3] was 4.7 ± 0.2 mol SLN added per mole of SERCA1a and the “amplitude of the inhibition of phosphoenzyme level, recS1a” value [3] was 28.6 ± 0.5%.

In the case of “pSLN: chemically synthesized S-palmitoylated rabbit sarcolipin, 31-residue single-spanning membrane peptide, palmitoylated on Cys9 (MERSTRELC(Palmitoyl)LNFTVVLITVILIWLLVRSYQY; UniProt P42532 1-31, looked up)”, the “EPmax (stoichiometry series), DDM-solubilized SR” value [1] is reported as 4.00 ± 0.14 nmoles EP/mg ATPase, the “decrease of the EP level, DDM-solubilized native SERCA1a (discussion)” value [1] is reported as “about 30%” and the “amplitude of the inhibition of phosphoenzyme level, DDM-solubilized SR” value [1] is reported as 28.1 ± 1.2%. The “SLN:SERCA1a ratio for half-inhibition, DDM-solubilized SR (Fig. 4H)” value [1] was 5.9 ± 0.6 mol SLN added per mole of SERCA1a, the “EPmax, from calcium bound state” value ([2]; SLN:SERCA1a 10:1, Fig. 4A, average of four replicates from two independent experiments, recS1a alone 3.37 ± 0.35) was 3.23 ± 0.37 nmoles EP/mg ATPase and the “EPmax, from calcium deprived state” value ([2]; SLN:SERCA1a 10:1) was 3.10 ± 0.09 nmoles EP/mg ATPase. For the same substance, the t1/2 of phosphorylation, from calcium bound state (Ca2.E1) ([2]; SLN:SERCA1a 10:1 mol:mol, 2 µM [γ32P]ATP, four replicates from two independent experiments, recS1a alone 5.7, p = 0.45) was 5.1 s, the t1/2 of phosphorylation, from calcium deprived state ([2]; SLN:SERCA1a 10:1 mol:mol) was 13.5 s and the “rate of phosphorylation, from calcium bound state” value ([2]; recS1a in absence or presence of pSLN, starting from Ca2.E1) was “the same”. For the same substance, the “rate of phosphorylation, from calcium deprived state” value [2] was “significantly lower”, the “EPmax (stoichiometry series), recS1a” value [3] was 2.37 ± 0.05 nmoles EP/mg ATPase and the “maximum decrease of the EP level, recS1a (discussion)” value [3] was “about 30%”. For the same substance, the “SLN:SERCA1a ratio for half-inhibition, recS1a (Fig. 4H)” value [3] was 5.1 ± 0.3 mol SLN added per mole of SERCA1a and the “amplitude of the inhibition of phosphoenzyme level, recS1a” value [3] was 31.2 ± 0.8%.
